Reference: patent publication US20230137032A1 (GlaxoSmithKline, published 2023)

Assays:
[1] = molecular target: T1, recombinant cyno BCMA, in house material (cyno, UniProt A0A2K5UD97 4-52); assay: ProteOn SPR run 1, antibody captured on Protein A, 25C
T1 construct: also called Cyno in house BCMA

[2] = molecular target: T2, recombinant human BCMA, in house material (human, UniProt Q02223 4-53, limits assumed); assay: as above
T2 construct: also called Human in house BCMA; In house human BCMA
T2 sequence (Q02223 4-53 limits assumed): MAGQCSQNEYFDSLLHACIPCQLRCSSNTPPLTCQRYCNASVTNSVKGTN

T1 sequence (A0A2K5UD97 entry or part of it): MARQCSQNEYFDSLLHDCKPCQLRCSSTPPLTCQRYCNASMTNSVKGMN

Row | Binder | Kd [1] [nM] | Kd [2] [nM] | binding result [1]
1 | CA8 humanised J0M0 (antibody, human IgG1, kappa, V domains shown, Humanised CA8, heavy chain J0 with light chain M0, human IgG1 kappa; also called CA8 J0M0) VH: QVQLVQSGAEVKKPGSSVKVSCKASGGTFSNYWMHWVRQAPGQGLEWMGATYRGHSDTYYNQKFKGRVTITADKSTSTAYMELSSLRSEDTAVYYCARGAIYNGYDVLDNWGQGTLVTVSS VL: DIQMTQSPSSLSASVGDRVTITCSASQDISNYLNWYQQKPGKAPKLLIYYTSNLHSGVPSRFSGSGSGTDFTLTISSLQPEDFATYYCQQYRKLPWTFGQGTKLEIKR | 0.648 | 0.435 | 
2 | CA8 humanised J0M1 (antibody, human IgG1, kappa, V domains shown, Humanised CA8, heavy chain J0 with light chain M1, human IgG1 kappa; also called CA8 J0M1) VH: QVQLVQSGAEVKKPGSSVKVSCKASGGTFSNYWMHWVRQAPGQGLEWMGATYRGHSDTYYNQKFKGRVTITADKSTSTAYMELSSLRSEDTAVYYCARGAIYNGYDVLDNWGQGTLVTVSS VL: DIQMTQSPSSLSASVGDRVTITCSASQDISNYLNWYQQKPGKAPKLLIYYTSNLHSGVPSRFSGSGSGTDYTLTISSLQPEDFATYYCQQYRKLPWTFGQGTKLEIKR | 0.503 | 0.373 | 
3 | CA8 humanised J0M2 (antibody, human IgG1, kappa, V domains shown, Humanised CA8, heavy chain J0 with light chain M2, human IgG1 kappa; also called CA8 J0M2) VH: QVQLVQSGAEVKKPGSSVKVSCKASGGTFSNYWMHWVRQAPGQGLEWMGATYRGHSDTYYNQKFKGRVTITADKSTSTAYMELSSLRSEDTAVYYCARGAIYNGYDVLDNWGQGTLVTVSS VL: DIQLTQSPSSLSASVGDRVTITCSASQDISNYLNWYQQKPGKAPELVIYYTSNLHSGVPSRFSGSGSGTDYTLTISSLQPEDFATYYCQQYRKLPWTFGQGTKLEIKR | 0.563 | 0.31 | 
4 | CA8 humanised J1M0 (antibody, human IgG1, kappa, V domains shown, Humanised CA8, heavy chain J1 with light chain M0, human IgG1 kappa; also called CA8 J1M0) VH: QVQLVQSGAEVKKPGSSVKVSCKASGYTFTNYWMHWVRQAPGQGLEWMGATYRGHSDTYYNQKFKGRVTITADKSTSTAYMELSSLRSEDTAVYYCARGAIYNGYDVLDNWGQGTLVTVSS VL: DIQMTQSPSSLSASVGDRVTITCSASQDISNYLNWYQQKPGKAPKLLIYYTSNLHSGVPSRFSGSGSGTDFTLTISSLQPEDFATYYCQQYRKLPWTFGQGTKLEIKR | 0.849 | 2.82 | 
5 | CA8 humanised J1M1 (antibody, human IgG1, kappa, V domains shown, Humanised CA8, heavy chain J1 with light chain M1, human IgG1 kappa; also called CA8 J1M1) VH: QVQLVQSGAEVKKPGSSVKVSCKASGYTFTNYWMHWVRQAPGQGLEWMGATYRGHSDTYYNQKFKGRVTITADKSTSTAYMELSSLRSEDTAVYYCARGAIYNGYDVLDNWGQGTLVTVSS VL: DIQMTQSPSSLSASVGDRVTITCSASQDISNYLNWYQQKPGKAPKLLIYYTSNLHSGVPSRFSGSGSGTDYTLTISSLQPEDFATYYCQQYRKLPWTFGQGTKLEIKR | 0.442 | 1.51 | 
6 | CA8 humanised J1M2 (antibody, human IgG1, kappa, V domains shown, Humanised CA8, heavy chain J1 with light chain M2, human IgG1 kappa; also called CA8 J1M2) VH: QVQLVQSGAEVKKPGSSVKVSCKASGYTFTNYWMHWVRQAPGQGLEWMGATYRGHSDTYYNQKFKGRVTITADKSTSTAYMELSSLRSEDTAVYYCARGAIYNGYDVLDNWGQGTLVTVSS VL: DIQLTQSPSSLSASVGDRVTITCSASQDISNYLNWYQQKPGKAPELVIYYTSNLHSGVPSRFSGSGSGTDYTLTISSLQPEDFATYYCQQYRKLPWTFGQGTKLEIKR | 0.303 | 1.14 | 
7 | CA8 humanised J2M0 (antibody, human IgG1, kappa, V domains shown, Humanised CA8, heavy chain J2 with light chain M0, human IgG1 kappa; also called CA8 J2M0) VH: QVQLVQSGAEVKKPGSSVKVSCKASGYTFTNYWMHWVRQAPGQGLEWMGATYRGHSDTYYNQKFKGRVTITADKSTSTAYMELSSLRSEDTAVYYCTRGAIYNGYDVLDNWGQGTLVTVSS VL: DIQMTQSPSSLSASVGDRVTITCSASQDISNYLNWYQQKPGKAPKLLIYYTSNLHSGVPSRFSGSGSGTDFTLTISSLQPEDFATYYCQQYRKLPWTFGQGTKLEIKR | 0.538 | 1.94 | 
8 | CA8 humanised J2M1 (antibody, human IgG1, kappa, V domains shown, Humanised CA8, heavy chain J2 with light chain M1, human IgG1 kappa; also called CA8 J2M1) VH: QVQLVQSGAEVKKPGSSVKVSCKASGYTFTNYWMHWVRQAPGQGLEWMGATYRGHSDTYYNQKFKGRVTITADKSTSTAYMELSSLRSEDTAVYYCTRGAIYNGYDVLDNWGQGTLVTVSS VL: DIQMTQSPSSLSASVGDRVTITCSASQDISNYLNWYQQKPGKAPKLLIYYTSNLHSGVPSRFSGSGSGTDYTLTISSLQPEDFATYYCQQYRKLPWTFGQGTKLEIKR | 0.218 | 0.842 | 
9 | CA8 humanised J2M2 (antibody, human IgG1, kappa, V domains shown, Humanised CA8, heavy chain J2 with light chain M2, human IgG1 kappa; also called CA8 J2M2) VH: QVQLVQSGAEVKKPGSSVKVSCKASGYTFTNYWMHWVRQAPGQGLEWMGATYRGHSDTYYNQKFKGRVTITADKSTSTAYMELSSLRSEDTAVYYCTRGAIYNGYDVLDNWGQGTLVTVSS VL: DIQLTQSPSSLSASVGDRVTITCSASQDISNYLNWYQQKPGKAPELVIYYTSNLHSGVPSRFSGSGSGTDYTLTISSLQPEDFATYYCQQYRKLPWTFGQGTKLEIKR | 0.106 | 0.482 | 
10 | CA8 humanised J3M0 (antibody, human IgG1, kappa, V domains shown, Humanised CA8, heavy chain J3 with light chain M0, human IgG1 kappa; also called CA8 J3M0) VH: QVQLVQSGAEVKKPGSSVKVSCKGSGYTFTNYWMHWVRQAPGQGLEWMGATYRGHSDTYYNQKFKGRVTITADTSTSTAYMELSSLRSEDTAVYYCTRGAIYNGYDVLDNWGQGTLVTVSS VL: DIQMTQSPSSLSASVGDRVTITCSASQDISNYLNWYQQKPGKAPKLLIYYTSNLHSGVPSRFSGSGSGTDFTLTISSLQPEDFATYYCQQYRKLPWTFGQGTKLEIKR | 0.526 | 1.37 | 
11 | CA8 humanised J3M1 (antibody, human IgG1, kappa, V domains shown, Humanised CA8, heavy chain J3 with light chain M1, human IgG1 kappa; also called CA8 J3M1) VH: QVQLVQSGAEVKKPGSSVKVSCKGSGYTFTNYWMHWVRQAPGQGLEWMGATYRGHSDTYYNQKFKGRVTITADTSTSTAYMELSSLRSEDTAVYYCTRGAIYNGYDVLDNWGQGTLVTVSS VL: DIQMTQSPSSLSASVGDRVTITCSASQDISNYLNWYQQKPGKAPKLLIYYTSNLHSGVPSRFSGSGSGTDYTLTISSLQPEDFATYYCQQYRKLPWTFGQGTKLEIKR | 0.196 | 0.438 | 
12 | CA8 humanised J3M2 (antibody, human IgG1, kappa, V domains shown, Humanised CA8, heavy chain J3 with light chain M2, human IgG1 kappa; also called CA8 J3M2) VH: QVQLVQSGAEVKKPGSSVKVSCKGSGYTFTNYWMHWVRQAPGQGLEWMGATYRGHSDTYYNQKFKGRVTITADTSTSTAYMELSSLRSEDTAVYYCTRGAIYNGYDVLDNWGQGTLVTVSS VL: DIQLTQSPSSLSASVGDRVTITCSASQDISNYLNWYQQKPGKAPELVIYYTSNLHSGVPSRFSGSGSGTDYTLTISSLQPEDFATYYCQQYRKLPWTFGQGTKLEIKR | 0.159 | 0.362 | 
13 | CA8 humanised J4M0 (antibody, human IgG1, kappa, V domains shown, Humanised CA8, heavy chain J4 with light chain M0, human IgG1 kappa; also called CA8 J4M0) VH: QVQLVQSGAEVKKPGSSVKVSCKGSGYTFTNYWMHWVRQAPGQGLEWIGATYRGHSDTYYNQKFKGRATLTADTSTSTAYMELSSLRSEDTAVYYCTRGAIYNGYDVLDNWGQGTLVTVSS VL: DIQMTQSPSSLSASVGDRVTITCSASQDISNYLNWYQQKPGKAPKLLIYYTSNLHSGVPSRFSGSGSGTDFTLTISSLQPEDFATYYCQQYRKLPWTFGQGTKLEIKR | 0.866 | 0.906 | 
14 | CA8 humanised J4M1 (antibody, human IgG1, kappa, V domains shown, Humanised CA8, heavy chain J4 with light chain M1, human IgG1 kappa; also called CA8 J4M1) VH: QVQLVQSGAEVKKPGSSVKVSCKGSGYTFTNYWMHWVRQAPGQGLEWIGATYRGHSDTYYNQKFKGRATLTADTSTSTAYMELSSLRSEDTAVYYCTRGAIYNGYDVLDNWGQGTLVTVSS VL: DIQMTQSPSSLSASVGDRVTITCSASQDISNYLNWYQQKPGKAPKLLIYYTSNLHSGVPSRFSGSGSGTDYTLTISSLQPEDFATYYCQQYRKLPWTFGQGTKLEIKR | 0.203 | 0.278 | 
15 | CA8 humanised J4M2 (antibody, human IgG1, kappa, V domains shown, Humanised CA8, heavy chain J4 with light chain M2, human IgG1 kappa; also called CA8 J4M2) VH: QVQLVQSGAEVKKPGSSVKVSCKGSGYTFTNYWMHWVRQAPGQGLEWIGATYRGHSDTYYNQKFKGRATLTADTSTSTAYMELSSLRSEDTAVYYCTRGAIYNGYDVLDNWGQGTLVTVSS VL: DIQLTQSPSSLSASVGDRVTITCSASQDISNYLNWYQQKPGKAPELVIYYTSNLHSGVPSRFSGSGSGTDYTLTISSLQPEDFATYYCQQYRKLPWTFGQGTKLEIKR | 0.179 | 0.281 | 
16 | CA8 humanised J5M0 (antibody, human IgG1, kappa, V domains shown, Humanised CA8, heavy chain J5 with light chain M0, human IgG1 kappa; also called CA8 J5M0) VH: QVQLVQSGAEVKKPGSSVKVSCKGSGYTFTNYWMHWVRQAPGQGLEWMGATYRGHSDTYYNQKFKGRVTITADTSTSTAYMELSSLRSEDTAVYYCTRGAIYDGYDVLDNWGQGTLVTVSS VL: DIQMTQSPSSLSASVGDRVTITCSASQDISNYLNWYQQKPGKAPKLLIYYTSNLHSGVPSRFSGSGSGTDFTLTISSLQPEDFATYYCQQYRKLPWTFGQGTKLEIKR | 0.025 | 0.087 | 
17 | CA8 humanised J5M1 (antibody, human IgG1, kappa, V domains shown, Humanised CA8, heavy chain J5 with light chain M1, human IgG1 kappa; also called CA8 J5M1) VH: QVQLVQSGAEVKKPGSSVKVSCKGSGYTFTNYWMHWVRQAPGQGLEWMGATYRGHSDTYYNQKFKGRVTITADTSTSTAYMELSSLRSEDTAVYYCTRGAIYDGYDVLDNWGQGTLVTVSS VL: DIQMTQSPSSLSASVGDRVTITCSASQDISNYLNWYQQKPGKAPKLLIYYTSNLHSGVPSRFSGSGSGTDYTLTISSLQPEDFATYYCQQYRKLPWTFGQGTKLEIKR | 0.112 | 0.145 | 
18 | CA8 humanised J5M2 (antibody, human IgG1, kappa, V domains shown, Humanised CA8, heavy chain J5 with light chain M2, human IgG1 kappa; also called CA8 J5M2) VH: QVQLVQSGAEVKKPGSSVKVSCKGSGYTFTNYWMHWVRQAPGQGLEWMGATYRGHSDTYYNQKFKGRVTITADTSTSTAYMELSSLRSEDTAVYYCTRGAIYDGYDVLDNWGQGTLVTVSS VL: DIQLTQSPSSLSASVGDRVTITCSASQDISNYLNWYQQKPGKAPELVIYYTSNLHSGVPSRFSGSGSGTDYTLTISSLQPEDFATYYCQQYRKLPWTFGQGTKLEIKR | 0.109 | 0.12 | 
19 | S307118G03 humanised H3L1 (antibody, human IgG1, kappa, V domains shown, Humanised, human IgG1 kappa) VH: QVQLVQSGAEVKKPGSSVKVSCKASGYTFTDYYMKWVRQAPGQGLEWIGEIYPNNGGITYNQKFKGRATLTVDKSTSTAYMELSSLRSEDTAVYYCANGYEFVYWGQGTLVTVSS VL: DIQMTQSPSSLSASVGDRVTITCSASQGISNYLNWYQQKPGKAPKLLIYYTSSLHSGVPSRFSGSGSGTDYTLTISSLQPEDFATYYCQQYSKLPWTFGQGTKLEIKR |  | 4.86 | no binding
20 | S307118G03 humanised H2L0 (antibody, human IgG1, kappa, V domains shown, Humanised, human IgG1 kappa) VH: QVQLVQSGAEVKKPGSSVKVSCKASGYTFTDYYMKWVRQAPGQGLEWMGEIYPNNGGITYNQKFKGRVTITADKSTSTAYMELSSLRSEDTAVYYCANGYEFVYWGQGTLVTVSS VL: DIQMTQSPSSLSASVGDRVTITCSASQGISNYLNWYQQKPGKAPKLLIYYTSSLHSGVPSRFSGSGSGTDFTLTISSLQPEDFATYYCQQYSKLPWTFGQGTKLEIKR |  | 6.36 | no binding
